B1: cr575 (nucleic acid)
guide: GTTTAAGAGCTAAGCTGGAAACAGCATAGCAAGTTTAAATAAGGCTAGTCCGTTATCAACTTGAAAAAGTGGCACGGAGTCGGTGCT
modifications: listed as DNA, chemistry not fully specified
B2: cr552 (nucleic acid)
guide: B1 guide with T53A, A55G, T56G, G76C
modifications: listed as DNA, chemistry not fully specified
B3: cr501 (nucleic acid)
guide: B1 guide with A65G, G72T, G76C, C86A
modifications: listed as DNA, chemistry not fully specified
B4: cr406 (nucleic acid)
guide: B1 guide with C57T, G76C
modifications: listed as DNA, chemistry not fully specified
B5: cr917 (nucleic acid)
guide: B1 guide with C45T, G48A, C75T, G76C, G77T, C81A, G83A
modifications: listed as DNA, chemistry not fully specified
B6: cr848 (nucleic acid)
guide: B1 guide with A65G, G76C, A78G
modifications: listed as DNA, chemistry not fully specified
B7: cr442 (nucleic acid)
guide: B1 guide with T34C, T61C, A68G, G76C
modifications: listed as DNA, chemistry not fully specified
B8: cr549 (nucleic acid)
guide: B1 guide with T61C, A68G, G76C
modifications: listed as DNA, chemistry not fully specified
B9: cr001 (nucleic acid)
guide: B1 guide with G1A, G76C
modifications: listed as DNA, chemistry not fully specified
B10: cr962 (nucleic acid)
guide: B1 guide with C73G, G76C, G77C, C81G, G85C
modifications: listed as DNA, chemistry not fully specified
B11: cr133 (nucleic acid)
guide: B1 guide with T46A, T49C, G76C
modifications: listed as DNA, chemistry not fully specified
B12: cr844 (nucleic acid)
guide: B1 guide with A59G, T70C, C75T, G76T, G82A, G83A
modifications: listed as DNA, chemistry not fully specified
B13: cr861 (nucleic acid)
guide: B1 guide with T56G, G71A, G76C
modifications: listed as DNA, chemistry not fully specified
B14: cr667 (nucleic acid)
guide: B1 guide with T34C, T62C, A67G, G76C
modifications: listed as DNA, chemistry not fully specified
B15: cr441 (nucleic acid)
guide: B1 guide with C57A, G76C
modifications: listed as DNA, chemistry not fully specified
B16: cr913 (nucleic acid)
guide: B1 guide with T40C, G76C
modifications: listed as DNA, chemistry not fully specified
B17: cr734 (nucleic acid)
guide: B1 guide with A28C, A55C, G71C, G76C
modifications: listed as DNA, chemistry not fully specified
B18: cr840 (nucleic acid)
guide: B1 guide with A65G, G71A, G76C
modifications: listed as DNA, chemistry not fully specified
B19: cr885 (nucleic acid)
guide: B1 guide with A31C, G71T, G76C
modifications: listed as DNA, chemistry not fully specified
B20: cr815 (nucleic acid)
guide: B1 guide with G76C, G83A
modifications: listed as DNA, chemistry not fully specified
B21: cr607 (nucleic acid)
guide: B1 guide with G76C, G79A, T80C
modifications: listed as DNA, chemistry not fully specified
B22: cr437 (nucleic acid)
guide: B1 guide with T61G, A68C, G76A, G77C, C81G, G82T
modifications: listed as DNA, chemistry not fully specified
B23: cr596 (nucleic acid)
guide: B1 guide with C73G, G76C
modifications: listed as DNA, chemistry not fully specified
B24: cr273 (nucleic acid)
guide: B1 guide with G44T, C50A, A65G, G76C
modifications: listed as DNA, chemistry not fully specified
B25: cr746 (nucleic acid)
guide: B1 guide with G33A, A65C, G76C
modifications: listed as DNA, chemistry not fully specified
B26: cr026 (nucleic acid)
guide: B1 guide with A5G, G7T, G76C
modifications: listed as DNA, chemistry not fully specified
B27: cr293 (nucleic acid)
guide: B1 guide with C73G, G76C, G77A, C81T, G85C
modifications: listed as DNA, chemistry not fully specified
B28: cr699 (nucleic acid)
guide: B1 guide with C45G, G48C, T61G, T62C, A67G, A68C, G76C
modifications: listed as DNA, chemistry not fully specified
B29: cr679 (nucleic acid)
guide: B1 guide with G29T, T53G, G76C
modifications: listed as DNA, chemistry not fully specified
B30: cr877 (nucleic acid)
guide: B1 guide with T61C, A68G, G72C, G82C, C86G
modifications: listed as DNA, chemistry not fully specified
B31: cr279 (nucleic acid)
guide: B1 guide with G76C, T80C, T87C
modifications: listed as DNA, chemistry not fully specified
B32: cr658 (nucleic acid)
guide: B1 guide with C45A, G48T, C60T, T62C, A67G, G69A, G76C
modifications: listed as DNA, chemistry not fully specified
B33: cr213 (nucleic acid)
guide: B1 guide with G29A, A42G, A65G, G76C
modifications: listed as DNA, chemistry not fully specified
B34: cr017 (nucleic acid)
guide: B1 guide with A6G, G76C
modifications: listed as DNA, chemistry not fully specified
B35: cr189 (nucleic acid)
guide: B1 guide with G76C, G77A
modifications: listed as DNA, chemistry not fully specified
B36: cr292 (nucleic acid)
guide: B1 guide with G71C, G76C
modifications: listed as DNA, chemistry not fully specified
B37: cr622 (nucleic acid)
guide: B1 guide with A59G, T62G, A67C, T70C, G76C
modifications: listed as DNA, chemistry not fully specified
B38: cr793 (nucleic acid)
guide: B1 guide with G76C, G83T
modifications: listed as DNA, chemistry not fully specified
B39: cr650 (nucleic acid)
guide: B1 guide with C57G, G76C
modifications: listed as DNA, chemistry not fully specified

Numbering of substitutions follows the chain as printed.

The values below come from patent US20220259593A1, “CONTROL OF MAMMALIAN GENE DOSAGE USING CRISPR” (The Regents of the University of California, priority 2019, published 2022).

This data set relates to K562 CRISPRi cells. The data set is described as follows: Constant region variant library pooled growth screen, K562. The format is cell-based, human. The note with it: sgRNA constant region variants; activity relative to the original, un-modified constant region cr995. Summed up:
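K562 CRISPRi, duplicate transductions; puromycin 1 d 0.75 μg/mL then 1 d 0.85 μg/mL; >2000× coverage in spinner flasks; harvests at 4-8 d growth. Activity = phenotype ÷ phenotype with unmodified constant region.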
In the case of B1, the Mean relative activity was 0.6955.

The molecule B2 returned a Mean relative activity of 0.6864.

As for B3, the Mean relative activity stood at 1.052.

B4 gave a Mean relative activity of 0.6285.

The molecule B5 displayed a Mean relative activity of 0.6521.

B6 yielded a Mean relative activity of 0.6714.

The molecule B7 gave a Mean relative activity of 0.6169.

For B8, the Mean relative activity was found to be 1.051.

As for B9, the Mean relative activity turned out to be 0.6312.

The molecule B10 showed a Mean relative activity of 0.6733.

Regarding B11, the Mean relative activity turned out to be 0.6664.

For B12, the Mean relative activity was 0.6346.

Regarding B13, the Mean relative activity was found to be 0.6319.

The molecule B14 returned a Mean relative activity of 0.6533.

B15 gave a Mean relative activity of 0.622.

Take B16: the Mean relative activity came to 0.633.

As for B17, the Mean relative activity is recorded as 0.6906.

In turn, B18 gave a Mean relative activity of 0.6688.

Turning to B19, the Mean relative activity came out at 0.6498.

On to B20, for which the Mean relative activity is listed as 0.6583.

In turn, B21 showed a Mean relative activity of 0.6847.

In turn, B22 registered a Mean relative activity of 0.6854.

Molecule B23 had a Mean relative activity of 0.69.

B24 displayed a Mean relative activity of 0.6725.

B25 came in with a Mean relative activity of 0.629.

Molecule B26 came in with a Mean relative activity of 0.6314.

Consider B27, for which the Mean relative activity stood at 1.052.

For B28, the Mean relative activity came out at 0.6628.

For B29, the Mean relative activity was found to be 0.6292.

B30 returned a Mean relative activity of 0.686.

Molecule B31 displayed a Mean relative activity of 0.6783.

With B32, the Mean relative activity stood at 0.6883.

With B33, the Mean relative activity was determined as 0.6325.

Regarding B34, the Mean relative activity was found to be 0.639.

The molecule B35 came in with a Mean relative activity of 0.627.

As to B36, the Mean relative activity worked out at 0.6902.

Consider B37, for which the Mean relative activity is reported as 1.099.

On to B38, for which the Mean relative activity is 0.6343.

With B39, the Mean relative activity came out at 0.6158.
